Assay results from the DeepSol protein solubility set.

Assay: soluble on expression in E. coli; label from the status in PepcDB or PDB records

Sequence | soluble on expression in E. coli
MSLDVCRGMLCGFGAVCEPSVEDPGRASCVCKKNVCPAMVAPVCGSDASTYSNECELQRAQCNQQRRIRLLRQGPCGSRDPCANVTCSFGSTCVPSADGQTASCLCPTTCFGAPDGTVCGSDGVDYPSECQLLRHACANQEHIFKKFDGPCDPCQGSMSDLNHICRVNPRTRHPEMLLRPENCPAQHTPICGDDGVTYENDCVMSRIGAARGLLLQKVRSGQCQTRDQCPETCQFNSVCLSRRGRPHCSCDRVTCDGAYRPVCAQDGHTYDNDCWRQQAECRQQQTIPPKHQGPCDQTPSPCRGAQCAFGATCTVKNGKAVCECQRVCSGGYDPVCGSDGVTYGSVCELESMACTLGREIRVARRGPCDRCGQCRFGSLCEVETGRCVCPSECVESAQPVCGSDGHTYASECELHVHACTHQISLYVASAGHCQTCGETVCTFEGHHHHHH | not soluble
MGSDKIHHHHHHNSALEWLQRAASAAKEQNYSGIYVYHHGDEVEVLRVLHRNDGRREQEKTEVMDGTQRHFLRVNSDVYCHLADGKQVRLERNASRRFFPAFLPARAAGLAELYEVKLGGVERVAGRPCQVVMLEPRDGYRHAFQLWLDSRTGLPLKSRIVNSDGEVVSMFVFSEVQIGRPPDASLFRNELAGKQVQQVSLGQRIDLPWSVTPPPGFERVQEAVRTLPGRNTPVTHLVFSDGLSVLSMFIEPADPGVPSLQGLSAEGAIGVYARALDGHTITTVGEVPNLALIETGNSVRRK | not soluble
MAHHHHHHMFYMFLTRNDHQDRRRESPPPTPKKHGASFLRRIHLGEFSGRTICISWETLVEKHEWRDCAKETLLALSSNMIVYLMCHISNANEKGKVLSMVKDIPQLARHNILFCETEKGYEAFSRQIKPAILVTHDSAQAEFLSLVLPNVVLVGSSATGSAMTSISSLSELLF | not soluble
MRTLFYSQLMYEAAKRQPHPHRCADGRTIADLSAQDLKKLNIAQLFFVAGRESEASYGDAYHRYHLYGAKQFEEYARKHLTHLFSEKEIVLYSRCIEDRIGDRFDETAEGYLIHLSHMIDLMRCKSPVEVFIGHSRGVSGIVPTLIQLFGREDGLDIMHYARSLFAATGEAVPYISSSEWPHLGIESDRVERALKIVGPLEVEGQEADAKKTAQAGFSVDGCYGALVKVDTPDWYHQVKEKEDYDVDEVIALPPQITIREEPPKANESFLLSLLRHVFWCCPSNQKRDDENTDVLEKKAQL | not soluble
MSDYCSNDASPFGDYDLPSDEPSPKYQKLNKNIFSPLSPTFELKFQSKLRVSGNSTSSTTSDDSDDESLHRSNQLKHLETLFKESILRTSFSRPGVSNTSCDEKLDLVSEDEKKRLRNTEAARRCREKIKRKTDDLETELTRLTARNEVMNQHRIRLLSQVEEQMRMLENIKSRNPELEAEIRYEAKKIVDTYTHQVETKRKAIQDYFDMTCNKLY | not soluble
STEKEKMIAGELYRSADETLSRDRLRARQLIHRYNHSLAEEHTLRQQILADLFGQVTEAYIEPTFRCDYGYNIFLGNNFFANFDCVMLDVCPIRIGDNCMLAPGVHIYTATHPIDPVARNSGAELGKPVTIGNNVWIGGRAVINPGVTIGDNVVVASGAVVTKDVPDNVVVGGNPARIIKKL | soluble
MGSDKIHHHHHHMGKGTNPTIGIALGSGAAKGWAHIGVLNGLAAMGIKPDKVAGCSVGALVGAAYAHNHLAELEEWVRSFSSWDVLGLMDIRWRKGGLIGGEKVFDVLQSRIGDVNIEDLEYPFAAIATDLYSGQEIWFRHGDLRQAVRASCSMPGILAPVRQGERWLVDGAVVNPVPVSVSRAMGVDIVIAVDLHGFHSGRLQVLPVNMTSHRATKEDTEMPARQETGFMDLFARGREYVSNLTDKFSLGTKSNPGMIAVMSQSMGILEQRHKRARLMGDPPDICIVPEVANIGTMEFHRADEAIAAGEAAVAKVAHLIEAAIWKD | not soluble
MAHHHHHHMKRSRFDGKAPSFAPAVTMHPQQQQRIEERGANNRVVVNSPYGCSRARYGWGMPFHTPLLAYVPGCPAIHIGISSLSGVPGRDRRMKTLFAQYAKKFNSLEHCYTFHNMGEETMWKNWRDMCASQLVASSSHSPASLGCVQTSDNGNQKSPPFIFSIKANQYLTHTRMLAIDDKSEEHIMHFFVNRCSILGRHLGPVLLQLPPQFQKNHVNMERIEAVAARIPKAFSVAVEFRHRSWYDEGVYALLRRLGWALVVAHHHDDPTASVHVDTGVDFMYVRLHGPIGLHIGDYGPVILSQWAERVVDYICGGVVSAAAADQSQPMAVNAHGREVYFFFNNSDSHVGGTTSSTVDATFLAQRVGELLAEKSRSCMVADSQSNSCSDVDVVTIISE | soluble
MIVEPMTKPRKPTVQRCQSFFTNGANHFYCKKSTHDGGRTHNLLIRSQTRCHYATRATVCWKFSIINKYIPTLANITITTLRKLYKRFIDRESLFLIFFRKDEHIVQNIIN | soluble
MGSDKIHHHHHHMNIIGFSKALFSTWIYYSPERILFDAGEGVSTTLGSKVYAFKYVFLTHGHVDHIAGLWGVVNIRNNGMGDREKPLDVFYPEGNRAVEEYTEFIKRANPDLRFSFNVHPLKEGERVFLRNAGGFKRYVQPFRTKHVSSEVSFGYHIFEVRRKLKKEFQGLDSKEISRLVKEKGRDFVTEEYHKKVLTISGDSLALDPEEIRGTELLIHECTFLDARDRRYKNHAAIDEVMESVKAAGVKKVILYHISTRYIRQLKSVIKKYREEMPDVEILYMDPRKVFEM | not soluble
MSEKRLTMKETIRRKALSLGFCAVGFAAADTLNEAMKEYRAMIDEGRHGEMGYLETGLEARANPELLLPGVKSVLSAALPWPAPAKPGAISGYAVIPDYHRVVGELLKELLDFIRSICDHPINGQICVDSSPVLEKEWAEAAGIGRTGKNTLLIVPGYGSRVFLGELLLDLELEPDTPLDWNPCGDCTACLDACPTGALNTPGKLDARRCISYLTIELKRDFTDEEAAMTNGWFYGCDHCLDACPHNANIEATGYPGFEQKKELVNLTPEKALELTHSQFRKRFAGTPALRLGLRRLKRNARAAVANKSQSKS | not soluble
SLSIDEIKQLIELIDESTLDEFELETKDSKILLKKHKTVVATAVQEAPIAVTPAQTAPVTPAAAPQVEASTAEDVNLEVITSPMVGTFYASASPEDANFVSVGSKVSAQSVVCIVEAMKLFNEITADIDGEIAEILVSSGELVEFGQPLFKVRKK | soluble
MSLKSIFISGAANGIGKAVALKFLHEGWLVGAYDLAEITYSHPNLRWGYLNVRQSESWDKALEDFATHTGGTIDVVDNNAGVIIEGPLQDAEEGSVDKLLAINVNGVTLGARAAHPYLARTPGAQLLNMSSASAVYGQPQIAVYSASKFYVAGLTEALNLEWRKDDIRVVDVWPLWAKTDLVNGVKAKSLKRLGVRITPEQVAQAVWDAVHPKSRWAKGKVHHGVSKLDKALYLMKSLSPDRVAMCFARLIAGEGHHHHHH | soluble
MGSDKIHHHHHHVPMGKLIASLVDIVKKNKFVDDTQKALFDNFENTKRVNVYIDDLDRGWEGRKEDIRRISALLNAVRDISNEMDNVHFMISLRSDVYYLVRTSDESTDKISGSVIWYTWDRHQILALLAKRVETFFGRDISENSLMGMHQSKIAQYLDPIMTQHFEGKGKWENAPIYRILMSLIRNRPRDLVMICTLAARNARKKGRSKILTEDLQSIFEDYSLERIQDIENEFKSELPEIRRLLFALKPSAKKSSKFSDLYVYTTDQVEAKIQSASANAPFYFSNNNKQATSEELHYFLYKINFLTARRKNKDDVLVRKTFEENKYLTGRFVDFGFGWEVHPAYRWALEPDDSESIYARLDLLDFE | not soluble
MSLVNSLTHYEILRIPSDATQDEIKKAYRNRLLNTHPDKLSKSIHDTVSNVTINKIQDAYKILSNIKTRREYDRLILENYKRQGFHNCGDGLDEFSLDDFSFDEDKLEFMMNCPRCQFVGGFHFSESLLDECIDNVDAMERSHSGYQLLTQCSACSLWLKVNFDIEEEQEGQ | not soluble
MGSDKIHHHHHHMRLTILGSSGSVPAPGNPASGYLLTSPDAPAVIMDMGPGVLAAVQEIQDPADAHVIFSHLHTDHCADFASLMVWRRFHPTLAAKSRNLLFGPEDTPNRLGRLSSDEPDGVDDMSDTFAFDAWEERKPELIDNFTVTPFRVVHPIETYALRVEEHRTGASITYSGDSAYTEALIDAARNVDIFLCEATWGTSCDDKAPGMHMCGQDAGRIAAAAGVKKLIITHVPPWIDAEATVAAAAEHFDGPIELARSGMVIEF | not soluble
AHHHHHHGSVRVAIIGQGYVASIFAVGLERIKEGELGYYGIPLANELPIKVEDIKIVASYDVDKTKIGLPLSEIVQRYWKGNVPESLQEVFVRKGIHLGSLRNLPIEATGLEDEMTLKEAIERLVEEWKEKKVDVIINVPTTEAFTPFGKLEELEKAIKDNNKERLTATQAYAYAAAQYAKEVGGAAFVNAIPTLIANDPAFVELAKESNLVIFGDDGATGATPLTADILGHLAQRNRHVLDIVQFNIGGNTDFLALTDKERNKSKEYTKSSVVEDILGYDAPHFIKPTGYLEPLGDKKFIAMHIEYISFNGARDELIIAGRINDSPALAGLLVDLARLGKIAVDKKEFGTVYPVNAFYMKNPGPKEAKNIPRIIAYEKLRQWAGLPPRYL | soluble
KALYSKPGSKNGRWNPETHKFCKCGVRIQTSAYTCSKCRNRSGENNSFFNHKHSDITKSKISEKMKGKKPSNIKKISCDGVIFDCAADAARHFKISSGLVTYRVKSDKWNWFYINA | soluble
MAFFESDIVQDEAKRLFGDYQQLMQLGSEYGKFDREGKKKFIETMEELMGRYRVFMKRFELSEDFQAKLTVEQLRTQLSQFGITPEQMFEQMNATLERMKAQIELPPSS | not soluble
MNYKADIGVFGGSGFYSFLENVEEIEMETPYGKPSDKIAIATYEGKRIAFLPRHGKNHQFPPHMIPYRANLYAMKKLGVKKILAPTSSGSLRADIKPGDFVICDQFVDRTTGRKDTFYDGPVTKHISSAHPYCPELRKIAIQVGKDLGITTHEKGTVVVIQGPRFSTVAESRWFSKMGWDVINMTQYPEVYLARELGICYANIALITDYDAGLEGRDDIEPVTEEAVLKVFAENNEKVKNMLFEVIKRIDLENSNCTCCNVDLSGLDL | soluble
MSLKALGLSKSTYYHWKHYQTSRHDKQDTILKSQIFEIWKNNYKAYGYPRITIAMRRLGVVIGPNRVYRLMQELGIRSLMGRRFKKPGTHVDYSQRPNLIKNHPIGTIWRADITYLELRPGTWVYLSTIFDQASKQIIAFNIGKEMASKLIIKTLLQALSRASKPTFLHSDMGSQYTSIAYEGLLKRHLIRHSYSKQGYPYDNGPLEAFHSLLKREFIFQTRFTSFEDLVLRVENYINWYNTERIRINEGHHHHHH | not soluble
MGSDKIHHHHHHMKPIIIFFSLFLIPLFADDLKSGFGEEYYKLDIDQKRQIFFIKMNEMFDQSFKKIEQERAFIEAFFKDAYKTGFRTSNQINLEKLITIKNKYRIENLYDFAEYKKRIQKIPKSMGIAQALVESATGTSRFAREANNLFGEWTWGEKGLIPDLRHPDKKHKIKIFDSLQDSVDSYVLNLNRHFAYEKFRDARAKFESEGKEITGLEAIKTLDSYSERKGYYINLITKIIKRYNLEKYDTNSNNT | not soluble
MSLPPCPQCASEYTYEDGGQYICPECAHEWNETESAADLAAQVRDANGAVLQNGDTVILIKDLKVKGSSMVIKQGTKVKGIRLQEGDHNIGCKIDGSAMNLKSEFVKKA | not soluble
